Source: paper PMC3097136

T1: COUP-TFI (Nr2f1) (Mus musculus, UniProt Q60632 1-422)
T1 sequence: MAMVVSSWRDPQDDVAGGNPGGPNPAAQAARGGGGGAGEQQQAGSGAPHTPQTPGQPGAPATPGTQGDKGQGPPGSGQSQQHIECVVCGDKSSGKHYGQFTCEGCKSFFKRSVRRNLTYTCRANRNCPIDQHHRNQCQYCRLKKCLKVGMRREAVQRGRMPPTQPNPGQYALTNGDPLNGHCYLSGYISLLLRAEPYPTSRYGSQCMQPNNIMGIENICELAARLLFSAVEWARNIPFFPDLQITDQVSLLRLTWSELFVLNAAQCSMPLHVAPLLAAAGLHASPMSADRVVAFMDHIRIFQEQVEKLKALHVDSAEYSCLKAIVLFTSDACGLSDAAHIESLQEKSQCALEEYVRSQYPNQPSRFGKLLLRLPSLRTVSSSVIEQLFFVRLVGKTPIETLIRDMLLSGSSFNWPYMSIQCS

T2: COUP-TFII (Nr2f2) (Mus musculus, UniProt P43135 1-414)
T2 sequence: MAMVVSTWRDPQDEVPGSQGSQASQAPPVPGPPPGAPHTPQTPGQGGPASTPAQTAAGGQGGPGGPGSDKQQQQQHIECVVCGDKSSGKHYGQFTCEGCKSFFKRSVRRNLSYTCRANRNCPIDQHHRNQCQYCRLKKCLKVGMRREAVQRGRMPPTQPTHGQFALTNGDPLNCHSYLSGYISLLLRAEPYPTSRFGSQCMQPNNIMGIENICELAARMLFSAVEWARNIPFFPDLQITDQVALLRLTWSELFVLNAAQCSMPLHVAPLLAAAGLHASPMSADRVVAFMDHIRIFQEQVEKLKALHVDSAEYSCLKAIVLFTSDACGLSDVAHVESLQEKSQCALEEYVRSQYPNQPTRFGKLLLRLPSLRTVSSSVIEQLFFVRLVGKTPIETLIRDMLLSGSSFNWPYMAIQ

B1: cold probe A (dsDNA)
DNA 1: ATCCAAAGGTCAATTGAAATCTCTTT
DNA 2: AAAGAGATTTCAATTGACCTTTGGAT
B2: probe A* (mutated NRBE) (dsDNA)
DNA 1: ATCCAAGCTCGAATTGAAATCTCTTT
DNA 2: AAAGAGATTTCAATTCGAGCTTGGAT
B3: cold probe A* (dsDNA)
DNA 1: ATCCAAGCTCGAATTGAAATCTCTTT
DNA 2: AAAGAGATTTCAATTCGAGCTTGGAT
B4: probe A (nPE2 NRBE) (dsDNA)
DNA 1: ATCCAAAGGTCAATTGAAATCTCTTT
DNA 2: AAAGAGATTTCAATTGACCTTTGGAT

Assays:
COUP-TFI (Nr2f1) [1] = target: T1, COUP-TFI (Nr2f1); test: competition
[2] = target: tESR1 (estrogen receptor alpha DNA-binding domain) (Homo sapiens, UniProt P03372 185-250); test: EMSA
Chain of tESR1 (estrogen receptor alpha DNA-binding domain) (P03372 185-250): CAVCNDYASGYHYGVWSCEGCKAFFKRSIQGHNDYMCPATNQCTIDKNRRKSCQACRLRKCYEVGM

COUP-TFI (Nr2f1) [3] = target: T1, COUP-TFI (Nr2f1); test: EMSA
COUP-TFI (Nr2f1) [4] = target: T1, COUP-TFI (Nr2f1); test: competition; remark: listed apart in the source
COUP-TFII (Nr2f2) = target: T2, COUP-TFII (Nr2f2); test: EMSA

Row | Binder | binding result (COUP-TFI (Nr2f1) [1]) | binding result [2] | binding result (COUP-TFI (Nr2f1) [3]) | binding result (COUP-TFI (Nr2f1) [4]) | binding result (COUP-TFII (Nr2f2))
1 | B1 | binds |  |  |  | 
2 | B2 |  | no binding | no binding |  | 
3 | B3 |  |  |  | no binding | 
4 | B4 |  | binds | binds |  | binds
